From publication PMC11709261
Read-outs that look alike come from different tables or passages of the source.

Experiments:
Experiment in all cases: two-hybrid; bacterial adenylate cyclase two-hybrid (BACTH) in E. coli BTH101 (cya) or derivatives (ΔdsbA AP58, ΔdjlA AP63, rcsB::tet EAW1, rcsC::tet EAW2, rcsF::cat EAW4); proteins fused at their C-terminus to T18 or T25; some sets with DjlA or DjlA variants co-expressed downstream of IgaA-T18; overnight growth in LB with 0.5 mM IPTG at 30°C; beta-galactosidase (ONPG, OD420 kinetics at 28°C), plotted relative to IgaA/RcsD
RcsD (E. coli) [1] = biological target: RcsD (E. coli) (UniProt P39838)
RcsD (E. coli) [2] = biological target: RcsD (E. coli) (UniProt P39838); remark: listed apart in the source
RcsD (E. coli) [3] = biological target: RcsD (E. coli) (UniProt P39838); remark: listed apart in the source
RcsD (E. coli) [4] = biological target: RcsD (E. coli) (UniProt P39838); remark: listed apart in the source
RcsD (E. coli) [5] = biological target: RcsD (E. coli) (UniProt P39838); remark: listed apart in the source
RcsD (E. coli) [6] = biological target: RcsD (E. coli) (UniProt P39838); remark: listed apart in the source

UniProt P39838, sequence (P39838 whole entry): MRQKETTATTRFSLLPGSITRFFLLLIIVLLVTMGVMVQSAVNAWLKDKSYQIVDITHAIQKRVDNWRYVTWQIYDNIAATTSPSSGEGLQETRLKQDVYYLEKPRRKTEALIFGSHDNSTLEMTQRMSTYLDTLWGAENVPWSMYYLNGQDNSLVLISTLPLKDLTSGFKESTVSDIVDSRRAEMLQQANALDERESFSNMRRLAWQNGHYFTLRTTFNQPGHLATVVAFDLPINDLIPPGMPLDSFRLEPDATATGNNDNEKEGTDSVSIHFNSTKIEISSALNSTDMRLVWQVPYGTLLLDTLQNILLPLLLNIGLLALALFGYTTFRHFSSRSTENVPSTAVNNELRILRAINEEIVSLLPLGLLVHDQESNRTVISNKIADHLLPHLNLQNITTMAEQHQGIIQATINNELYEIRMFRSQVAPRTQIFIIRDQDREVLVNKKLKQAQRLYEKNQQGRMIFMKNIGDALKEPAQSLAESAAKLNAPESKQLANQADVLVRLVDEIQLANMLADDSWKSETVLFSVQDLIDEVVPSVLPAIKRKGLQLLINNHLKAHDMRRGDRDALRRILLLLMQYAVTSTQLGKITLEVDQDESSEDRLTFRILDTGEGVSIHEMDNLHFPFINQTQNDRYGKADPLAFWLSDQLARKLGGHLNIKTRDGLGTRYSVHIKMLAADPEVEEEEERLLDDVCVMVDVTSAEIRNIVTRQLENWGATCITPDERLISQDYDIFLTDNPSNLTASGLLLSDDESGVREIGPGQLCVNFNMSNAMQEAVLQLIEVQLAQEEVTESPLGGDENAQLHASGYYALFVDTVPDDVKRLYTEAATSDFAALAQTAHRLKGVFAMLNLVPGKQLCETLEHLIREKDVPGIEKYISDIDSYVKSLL

In the case of IgaA (natural protein), the beta-galactosidase activity (BACTH) (units (1000x the slope of OD420)) (RcsD (E. coli) [1]) is reported as 577, the beta-galactosidase activity (BACTH) (RcsD (E. coli) [2]) is reported as 533 units and the beta-galactosidase activity (BACTH) (units (1000x the slope of OD420)) (RcsD (E. coli) [2]) is reported as 545. The beta-galactosidase activity (BACTH) (units (1000x the slope of OD420)) (RcsD (E. coli) [3]) was 569, the beta-galactosidase activity (BACTH) (units (1000x the slope of OD420)) (RcsD (E. coli) [4]) was 580 and the beta-galactosidase activity (BACTH) (units (1000x the slope of OD420)) (RcsD (E. coli) [5]) was 578. For the same substance, the beta-galactosidase activity (BACTH) (units (1000x the slope of OD420)) (RcsD (E. coli) [6]) was 490.
